T1: AusE-(6P-A298) (Aspergillus nidulans, UniProt Q5AR34)
T1 construct: crystal construct, N-terminal truncated 6P-A298 in pET28a, E. coli, EDTA-treated, Mn(II) reconstituted; homodimer
T1 sequence (Q5AR34 6-298): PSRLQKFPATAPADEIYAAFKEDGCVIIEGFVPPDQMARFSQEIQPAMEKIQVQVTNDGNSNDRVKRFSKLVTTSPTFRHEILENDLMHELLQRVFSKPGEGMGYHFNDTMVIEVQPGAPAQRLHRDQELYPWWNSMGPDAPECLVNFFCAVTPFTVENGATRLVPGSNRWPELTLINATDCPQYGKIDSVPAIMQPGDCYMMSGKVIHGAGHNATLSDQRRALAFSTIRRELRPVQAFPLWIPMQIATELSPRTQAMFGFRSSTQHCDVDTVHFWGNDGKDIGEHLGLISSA

T2: PrhA-(6P-A298), N-terminal truncated and C-terminal chimeric PrhA (Penicillium brasilianum, UniProt A0A1E1FFL0, E295I/A296S/P297S/S298A)
T2 construct: crystal construct PrhA-(6P-A298): residues from Pro6, C-terminal Glu295-Val301 replaced by AusE Ile295-Ser296-Ser297-Ala298, in pET28a, EDTA-treated; homodimer; Asp276′ of the other chain contacts substrate
T2 sequence (A0A1E1FFL0 6-298 E295I/A296S/P297S/S298A): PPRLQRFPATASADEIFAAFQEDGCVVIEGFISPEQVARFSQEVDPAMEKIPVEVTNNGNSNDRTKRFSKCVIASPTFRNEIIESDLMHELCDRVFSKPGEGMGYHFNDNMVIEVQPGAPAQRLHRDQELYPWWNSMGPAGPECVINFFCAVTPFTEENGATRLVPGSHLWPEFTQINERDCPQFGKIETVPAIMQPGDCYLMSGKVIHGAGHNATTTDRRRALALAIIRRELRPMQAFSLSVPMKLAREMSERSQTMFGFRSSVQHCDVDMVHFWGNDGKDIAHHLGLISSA


Assays:
AusE-(6P-A298) = molecular target: T1, AusE-(6P-A298); test: X-ray crystal structure; format: binding; details: Mn(II), anaerobic; co-substrate
[1] = molecular target: T2, PrhA-(6P-A298), N-terminal truncated and C-terminal chimeric PrhA; test: X-ray crystal structure; format: binding; details: Fe(II); crystal soaked with αKG; co-substrate, bidentate chelation
[2] = molecular target: the molecule itself; test: crystal structure; anaerobic vapor diffusion at 20 °C; AusE with MnCl2 (and αKG); PrhA and mutants crystallised as apo form and soaked with FeSO4, αKG and substrate; homodimer in the crystal
[3] = molecular target: the molecule itself; test: dynamic light scattering; purified enzymes; monomodal distribution, polydispersity 18.2 and 21.1%; predicted masses compared with the calculated 35.1 kDa

Molecule	stoichiometry N [2]	stoichiometry N [3]	further results
O=C(O)CCC(=O)C(=O)O [α-ketoglutarate]	–	–	X-ray crystal structure (AusE-(6P-A298)): X-ray crystal structures of AusE complexed with Mn(II) and αKG (AusE-Mn/αKG); X-ray crystal structure [1]: in complex with Fe(II) and αKG (PrhA-Fe/αKG)
N-terminal truncated and C-terminal chimeric PrhA-(6P-A298) (enzyme, PrhA, Fe(II)/αKG-dependent oxygenase of paraherquonin biosynthesis, Penicillium brasilianum; from P6 up to the residue before Glu295 (Glu295-Val301 were replaced); AusE, Aspergillus nidulans, residues Ile295-Ser296-Ser297-Ala298, put in place of PrhA Glu295-Val301; Crystallised as apo form; Fe(II), αKG and preaustinoid A1 (5) were soaked in; also called PrhA-Fe; PrhA-Fe/αKG; source: E. coli …) PPRLQRFPATASADEIFAAFQEDGCVVIEGFISPEQVARFSQEVDPAMEKIPVEVTNNGNSNDRTKRFSKCVIASPTFRNEIIESDLMHELCDRVFSKPGEGMGYHFNDNMVIEVQPGAPAQRLHRDQELYPWWNSMGPAGPECVINFFCAVTPFTEENGATRLVPGSHLWPEFTQINERDCPQFGKIETVPAIMQPGDCYLMSGKVIHGAGHNATTTDRRRALALAIIRRELRPMQAFSLSVPMKLAREMSERSQTMFGFRSSVQHCDVDMVHFWGNDGKDIAHHLGLISSA	2	–	–
wild-type PrhA (PrhA-(M1-V301)) (enzyme, Penicillium brasilianum, UniProt A0A1E1FFL0 1-301, looked up, PrhA, Fe(II)/αKG-dependent oxygenase, Penicillium brasilianum; It may have been the chimeric 6-298 crystallisation construct; also called recombinant PrhA; source: E. coli Rosetta 2(DE3)pLysS, purified (HisTrap HP, HiTrap Q HP, Superdex 200)) MAPMIPPRLQRFPATASADEIFAAFQEDGCVVIEGFISPEQVARFSQEVDPAMEKIPVEVTNNGNSNDRTKRFSKCVIASPTFRNEIIESDLMHELCDRVFSKPGEGMGYHFNDNMVIEVQPGAPAQRLHRDQELYPWWNSMGPAGPECVINFFCAVTPFTEENGATRLVPGSHLWPEFTQINERDCPQFGKIETVPAIMQPGDCYLMSGKVIHGAGHNATTTDRRRALALAIIRRELRPMQAFSLSVPMKLAREMSERSQTMFGFRSSVQHCDVDMVHFWGNDGKDIAHHLGLEAPSVHV	–	2	–
N-terminal truncated AusE-(6P-A298) (enzyme, Aspergillus nidulans, UniProt Q5AR34 6-298, looked up, AusE, Fe(II)/αKG-dependent oxygenase of austinol biosynthesis, Aspergillus nidulans; residues P6-A298, cloned NdeI/BamHI into pET28a; Crystallised with Mn(II), and with Mn(II) and αKG; also called AusE-Mn; AusE-Mn/αKG; source: E. coli Rosetta 2(DE3)pLysS, purified (HisTrap HP, HiTrap Q HP, EDTA treatment, Superdex 200)) PSRLQKFPATAPADEIYAAFKEDGCVIIEGFVPPDQMARFSQEIQPAMEKIQVQVTNDGNSNDRVKRFSKLVTTSPTFRHEILENDLMHELLQRVFSKPGEGMGYHFNDTMVIEVQPGAPAQRLHRDQELYPWWNSMGPDAPECLVNFFCAVTPFTVENGATRLVPGSNRWPELTLINATDCPQYGKIDSVPAIMQPGDCYMMSGKVIHGAGHNATLSDQRRALAFSTIRRELRPVQAFPLWIPMQIATELSPRTQAMFGFRSSTQHCDVDTVHFWGNDGKDIGEHLGLISSA	2	–	–
wild-type AusE (AusE-(M1-A298)) (enzyme, Aspergillus nidulans, UniProt Q5AR34 1-298, looked up, AusE, Fe(II)/αKG-dependent oxygenase, Aspergillus nidulans; It may have been the 6-298 crystallisation construct; also called recombinant AusE; source: E. coli Rosetta 2(DE3)pLysS, purified (HisTrap HP, HiTrap Q HP, Superdex 200)) MGSATPSRLQKFPATAPADEIYAAFKEDGCVIIEGFVPPDQMARFSQEIQPAMEKIQVQVTNDGNSNDRVKRFSKLVTTSPTFRHEILENDLMHELLQRVFSKPGEGMGYHFNDTMVIEVQPGAPAQRLHRDQELYPWWNSMGPDAPECLVNFFCAVTPFTVENGATRLVPGSNRWPELTLINATDCPQYGKIDSVPAIMQPGDCYMMSGKVIHGAGHNATLSDQRRALAFSTIRRELRPVQAFPLWIPMQIATELSPRTQAMFGFRSSTQHCDVDTVHFWGNDGKDIGEHLGLISSA	–	2	–

Reference: publication PMC5760668, “Structure function and engineering of multifunctional non-heme iron dependent oxygenases in fungal meroterpenoid biosynthesis” (Nature Communications, 2018)
